Experiment [1] deals with T1, extracellular domain (ECD) of recombinant human Sortilin with a C-terminal HIS tag (ECD-huSortilin-HIS) (human, UniProt Q99523 78-755).
T1 construct: Bought (R&D Systems); also called human sortilin-ECD; not shown: C-terminal HIS tag
T1 sequence: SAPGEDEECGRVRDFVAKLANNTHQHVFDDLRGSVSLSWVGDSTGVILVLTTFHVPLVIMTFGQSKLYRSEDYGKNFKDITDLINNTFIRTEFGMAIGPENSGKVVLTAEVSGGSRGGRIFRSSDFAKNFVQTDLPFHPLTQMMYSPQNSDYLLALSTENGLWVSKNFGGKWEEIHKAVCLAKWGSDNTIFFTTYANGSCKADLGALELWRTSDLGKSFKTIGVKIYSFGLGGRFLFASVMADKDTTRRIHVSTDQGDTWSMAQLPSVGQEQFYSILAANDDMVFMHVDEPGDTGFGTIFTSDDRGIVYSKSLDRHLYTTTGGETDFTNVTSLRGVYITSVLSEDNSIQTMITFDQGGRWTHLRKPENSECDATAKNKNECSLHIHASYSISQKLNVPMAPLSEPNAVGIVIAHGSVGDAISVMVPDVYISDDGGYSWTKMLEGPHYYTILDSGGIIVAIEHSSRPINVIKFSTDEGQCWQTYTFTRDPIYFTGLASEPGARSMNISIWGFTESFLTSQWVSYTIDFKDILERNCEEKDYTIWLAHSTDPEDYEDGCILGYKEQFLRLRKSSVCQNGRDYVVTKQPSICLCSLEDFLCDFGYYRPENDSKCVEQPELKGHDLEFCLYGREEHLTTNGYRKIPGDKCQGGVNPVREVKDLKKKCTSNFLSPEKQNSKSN
The experiment in a line: SPR (Biacore T200), mAb captured by anti-mouse antibody on CM5, Sortilin 0.1-300 nM as analyte, global 1:1 fit. How it is done: Analysis was performed using a Biacore T200 to compare the binding affinity of murine anti-huSortilin antibodies to recombinant human Sortilin. Anti-mouse antibody was immobilized on sensor chip CM5 (GE Healthcare Life Sciences) via amine coupling, and mouse antibodies (ligand) were captured to a level to ensure a maximum binding of analyte of 50 RU (approximately 100RU of ligand binding). Various concentrations of Sortilin (ranging from 0.1 nM to 300 nM) were passed over the captured ligand at […] in running buffer (HBS+0.05% P-20, 1 mg/mL BSA) for 180-300s association time and 300-900s dissociation time. Regeneration of the chip surface was accomplished by 2 short injections of 10 mM Glycine-HCl at pH 1.7. Data was blank subtracted to both a sensor not containing ligand and 0 nM analyte concentration. Analysis was performed using a global 1:1 fit with Biacore Insight Evaluation software (v2.0) with bulk refractive index set to zero RU.
(In general: In SPR one partner is held on a chip, and binding of the other changes the refractive index at the surface.)

Experiment [2] deals with T2, sortilin array peptides with the consensus motif RTEFGMAIGP (human, not fully specified; array peptides cyclized via a thioether linkage between a C-terminal cysteine and a modified N-terminus).
T2 construct: Consensus motif of overlapping 7, 10 and 13 amino acid conformational microarray peptides
T2 peptide: RTEFGMAIGP
The experiment in a line: PEPperMAP conformational (cyclized) peptide microarray, mAb 10-100 ug/mL.

Experiment [3] deals with T1, extracellular domain (ECD) of …. The experiment in a line: ELISA, Ab binding to hSortilin-ECD. The procedure: Purified anti-huSortilin mAb binding to huSortilin was characterized by ELISA (ELISA protocol as in Example 1) using a 12 point titration of mAb concentration. mAbs were diluted 2-fold from a starting concentration of 67 nM and then added to ECD-huSortilin-HIS coated plates. Data was analyzed and EC₅₀ (nM) was calculated using graphed Prism. Commercially available goat anti-huSortilin (R&D Biosystems) was used as a positive control. Results are depicted in FIG. 8.

The target is the same in experiment [4]. Nature of the experiment: blocking ELISA, coated ECD-huSortilin-HIS; blocked ligand huPGRN-Biotin.
Experiment [5] has as its target T3, human sortilin on the cell surface (recombinant huSortilin on HEK 293 cells; endogenous on U251MG cells) (human, UniProt Q99523 78-831).
T3 construct: whole, on cells; also called huSortilin expressing HEK293 cells; cell surface huSortilin
T3 sequence (looked up): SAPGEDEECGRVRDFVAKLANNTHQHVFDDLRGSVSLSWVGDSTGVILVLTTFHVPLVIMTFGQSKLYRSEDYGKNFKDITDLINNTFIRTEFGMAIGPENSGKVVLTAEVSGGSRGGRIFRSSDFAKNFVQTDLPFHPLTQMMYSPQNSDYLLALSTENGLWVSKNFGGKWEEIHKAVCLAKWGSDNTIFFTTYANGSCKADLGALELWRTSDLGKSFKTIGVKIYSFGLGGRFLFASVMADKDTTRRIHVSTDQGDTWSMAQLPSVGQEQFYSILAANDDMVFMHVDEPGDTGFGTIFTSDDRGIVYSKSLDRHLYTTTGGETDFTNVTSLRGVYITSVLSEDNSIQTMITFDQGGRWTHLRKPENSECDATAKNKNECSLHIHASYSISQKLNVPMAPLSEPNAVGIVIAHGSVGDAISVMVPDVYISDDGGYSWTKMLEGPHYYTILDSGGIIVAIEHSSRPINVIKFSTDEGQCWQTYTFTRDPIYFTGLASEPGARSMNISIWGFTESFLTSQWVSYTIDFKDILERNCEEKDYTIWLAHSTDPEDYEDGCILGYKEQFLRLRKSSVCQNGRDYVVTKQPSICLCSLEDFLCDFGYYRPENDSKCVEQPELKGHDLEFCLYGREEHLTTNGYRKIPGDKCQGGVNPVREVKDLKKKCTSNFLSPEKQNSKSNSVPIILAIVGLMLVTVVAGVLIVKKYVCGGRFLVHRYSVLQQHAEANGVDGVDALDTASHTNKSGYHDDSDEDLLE
The experiment in a line: cell-based blocking titration (flow cytometry), huSortilin HEK293 cells; blocked ligand 30 nM huPGRN-Biotin. The procedure:
Cells were cultured using standard methods. […] Cells were then washed twice in PBS+2% FBS and incubated for 30 minutes on ice with 50 uL per well 1:200 Steptavidin-APC (BD biosciences) in PBS+2% FBS. Cells were then washed as above and resuspended in 100 uL PBS+2% FBS. Data was acquired using the BD LSR II and analyzed using FlowJo software version 10.6 and Microsoft excel.
The cell-based blocking assay was repeated with the top 12 blocking mAbs using a dose titration from 67 nM to 0.4 nM. Blocking assay was carried out as above. Data was analyzed using FlowJo software version 10.6. and GraphPad Prism software.
(In flow cytometry, cells or beads pass a laser one at a time.)

B1: mouse monoclonal antibody 8H24 (antibody, mouse IgG2c, V domains shown)
VH: QAYLQQSGTELVRPGASVKMSCKASGYTFTSYSMHWVKQTPRQGLEWIGAIYPGNDATSYNQKFKGKATLTVDKSSSTAYMQLSSLTSEDSAVYFCAREGYYGSSFEAWFASWGQGTLVTVSA
VL: DVLMTQTPLSLPVSLGDQASISCRSSQSIVHSNGNTYLEWYLQKPGQSPKLLIYKVSNRFSGVPDRFSGSGSGTDFTLKISRVEAEDLGVYYCFQGSHVLPTFGGGTKLEIK
notes: mouse IgG2c, kappa; also called mu8H24; m8H24
In the case of B1, the Kd in experiment [1] was determined as 4.56 nM. The binding result in experiment [2] is “binds”. Besides, the EC50 in experiment [3] was 0.4 nM. Also, the “% Blocking at 7.4nM mAb” value in experiment [4] turned out to be 89%. Moreover, the “% Max blocking at 11nM mAb” value in experiment [5] was found to be 66%.

In general, Kd refers to a measure of binding affinity in units of concentration. What is called EC50 is the concentration needed to bring the measured effect to its halfway point.

These data come from patent US20230235048A1 (PROTHENA BIOSCIENCES, published 2023).
